According to US9453060B2, “Protein engineered systems for delivery of molecules” (New York University, priority 2013, dated 2016):

Columns and labels:
[1] = test system: β-galactosidase plasmid DNA; assay: Electrophoretic mobility shift assay (gel retardation) of protein binding to plasmid DNA; settings: protein to DNA w/w ratio 18:1
Description: The β-galactosidase plasmid DNA (5.1 kb) at a concentration of 50 ng was mixed with different concentrations of CSP and COMPcc and incubated at room temperature for 30 minutes. The mixtures were run on 1% agarose gel (stained with ethidium bromide) and imaged under UV light using ImageQuant (GE healthcare).

[2] = Curcumin binding/loading to protein
[3] = Doxorubicin binding/loading to protein
MCF7 = assay: β-galactosidase gene transfection across different cell lines; assay type: cell-based
[4] = CD spectroscopy temperature scan (melting temperature); assay type: physicochemical; settings: CD at 222 nm
Description: CD spectroscopy. The secondary structure of CSP/COMPcc was analyzed using a Jasco J-815 spectrometer at 10 μM protein concentration in 50 mM Tris-HCl buffer pH 8.0. The wavelength scans were performed at 4° C. over a range of 200-250 nm with a 1 nm step size. Temperature scans were performed at 222 nm from 20° C. to 85° C. with temperature ramp of 1° C./min The observed ellipticity value (Θ) was converted into mean residue ellipticity (MRE) using the standard equation ΘMRE=Θ/(10 cpl) where c is the molar concentration of the protein, p is the path length in centimeters and l is the number of amino acids. The fraction folded was derived using equation F=(ΘA−ΘU)/(ΘN−ΘU), where, ΘA is the MRE observed at given temperature, ΘU is MRE value for completely unfolded protein and ΘN is the MRE value of completely folded protein that is considered at 25° C. The first derivative of fraction folded was used to calculate melting temperature (Tm) of protein. All data were represented as an average of three trials.

MC3T3-E1 cells = assay: Cell viability by MTT assay; assay type: cell-based, mouse
Description: Cell viability studies. The cells were seeded in 96-well plate at a density of […] in αMEM with 10% FBS and incubated at 37° C. with 5% CO2 overnight. The cytotoxicity of different complexes was evaluated by 3-(4,5-dimethylthiazol-2-yl)-2,5-diphenyl […] bromide, MTT assay. Approximately 10 μL of MTT reagent from 5 mg/mL stock was added to each well and incubated for 4 hours at 37° C. with 5% CO2. After incubation, the entire medium was aspirated and 100 μL of dimethyl sulfoxide was added to each well. The change in absorbance of colored solution was observed using a microplate reader Synergy HT at 570 nm. The percent cell viability was calculated by normalizing the observed absorbance value to that of the control cells without any treatment. The data was represented as the average of quadruplicates±standard deviation.

B1: COMPcc: cartilage oligomeric matrix protein coiled-coil, parent protein, SEQ ID NO:2 (protein)
chain: MRGSHHHHHHGSGDLAPQMLRELQETNAALQDVRELLRQQVKEITFLKNTVMESDASGKLN
modifications: supercharged coiled-coil protein
DNA shift at higher protein to DNA ratio [1]: negligible DNA shift
curcumin loading [2]: 64%
doxorubicin loading [3]: 26%

B2: CSP: engineered supercharged coiled-coil protein, SEQ ID NO:1; COMPcc with eight solvent-exposed residues mutated to arginine (protein)
chain: MRGSHHHHHHGSGRLRPQMLRELQRTNAALRDVRELLRQQVKEITRLKNTVRRSRASGKLN
modifications: supercharged coiled-coil protein
notes: COMPcc with eight solvent-exposed residues mutated to arginine
β-galactosidase gene transfection (in words) (MCF7): drastic increase in transfection
decrease in the melting temperature (Tm) in comparison to the parent COMPcc [4]: 10 °C
curcumin loading [2]: 63%
doxorubicin loading [3]: 31%
cytotoxicity (in words) (MC3T3-E1 cells): not cytotoxic
